Blank lines part the entries; values can stand above or below the binder they belong to.
Columns and labels:
Experiment in all cases: crystal structure
Fab^S1CE1-EPR-1 = target: Fab^S1CE1-EPR-1
[1] = target: extracellular domain (ECD) of the human erythropoietin receptor (EPOR) with a C-terminal hexahistidine tag (human, UniProt P19235)
Fab^S1CE3-EPR-1 = target: Fab^S1CE3-EPR-1
Fab^S1CE4-EPR-1 = target: Fab^S1CE4-EPR-1

Chain of extracellular domain (ECD) of the human erythropoietin receptor (EPOR) with a C-terminal hexahistidine tag (P19235 25-250): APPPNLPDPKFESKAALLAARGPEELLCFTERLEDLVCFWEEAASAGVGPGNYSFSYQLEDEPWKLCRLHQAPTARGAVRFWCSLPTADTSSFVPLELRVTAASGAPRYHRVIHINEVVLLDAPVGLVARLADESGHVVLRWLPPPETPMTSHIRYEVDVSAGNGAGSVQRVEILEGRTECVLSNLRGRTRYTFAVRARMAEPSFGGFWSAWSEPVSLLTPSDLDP

B1: Fab^S1CE1-EPR-1 (Fab, V domains shown)
VH: EVQLVESGGGLVQPGGSLRLSCAASGFNLRSYYMHWVRQAPGKGLEWVASISPYYSYTYYADSVKGRFTISADTSKNTAYLQMNSLRAEDTAVYYCARHGYGAMDYWGQGTLVTVFN
VL: DIQMTQSPSSLSASVGDRVTITCRASQSVSSAVAWYQQKPGKAPKLLIYSASSLYSGVPSRFSGSRSGTDFTLTISSLQPEDFATYYCQQSSYSLITFGQGTKVEIK
stoichiometry N (Fab^S1CE1-EPR-1): 2

B3: Fab^S1CE3-EPR-1 (Fab, V domains shown)
VH: EVQLVESGGGLVQPGGSLRLSCAASGFNLRSYYMHWVRQAPGKGLEWVASISPYYSYTYYADSVKGRFTISADTSKNTAYLQMNSLRAEDTAVYYCARHGYGAMDYWGQGTLVTVFN
VL: DIQMTQSPSSLSASVGDRVTITCRASQSVSSAVAWYQQKPGKAPKLLIYSASSLYSGVPSRFSGSRSGTDFTLTISSLQPEDFATYYCQQSSYSLITFGQGTKVEIK
stoichiometry N (Fab^S1CE3-EPR-1): 2

Other lines, results leading:

binding result [1]: binds
B2: Fab^S1CE-EPR-1 (Fab, V domains shown)
VH: EVQLVESGGGLVQPGGSLRLSCAASGFNLRSYYMHWVRQAPGKGLEWVASISPYYSYTYYADSVKGRFTISADTSKNTAYLQMNSLRAEDTAVYYCARHGYGAMDYWGQGTLVTVFN
VL: DIQMTQSPSSLSASVGDRVTITCRASQSVSSAVAWYQQKPGKAPKLLIYSASSLYSGVPSRFSGSRSGTDFTLTISSLQPEDFATYYCQQSSYSLITFGQGTKVEIK

stoichiometry N (Fab^S1CE4-EPR-1): 2
B4: Fab^S1CE4-EPR-1 (Fab, V domains shown)
VH: EVQLVESGGGLVQPGGSLRLSCAASGFNLRSYYMHWVRQAPGKGLEWVASISPYYSYTYYADSVKGRFTISADTSKNTAYLQMNSLRAEDTAVYYCARHGYGAMDYWGQGTLVTVFN
VL: DIQMTQSPSSLSASVGDRVTITCRASQSVSSAVAWYQQKPGKAPKLLIYSASSLYSGVPSRFSGSRSGTDFTLTISSLQPEDFATYYCQQSSYSLITFGQGTKVEIK

— article PMC11201802 (Protein Science : A Publication of the Protein Society, 2024)
